Article PMC2789240, “Comparative structural, kinetic and inhibitor studies of Trypanosoma brucei trypanothione reductase with T. cruzi^☆” (Molecular and Biochemical Parasitology, 2010)

Molecular target: the molecule itself
Assay: SEC; 600 ug TbTryR on Superdex 200 10/300, 25 mM HEPES pH 7.5, 100 mM NaCl; mass from BioRad gel filtration standards; data not shown

B1: Trypanosoma brucei brucei trypanothione reductase (enzyme, T. b. brucei, UniProt P39051 1-492, looked up)
chain: MSKIFDLVVIGAGSGGLEAGWNAATLYKKRVAVIDVQTHHGPPHYAALGGTCVNVGCVPKKLMVTGAQYMDHLRESAGFGWEFDGSSVKANWKKLIAAKNEAVLDINKSYEGMFNDTEGLDFFLGWGSLESKNVVVVRETADPKSAVKERLQADHILLATGSWPQMPAIPGVEHCISSNEAFYLPEPPRRVLTVGGGFISVEFAGIFNAYKPPGGKVTLCYRNNLILRGFDETIREEVTKQLTANGIEIMTNENPAKVSLNTDGSKHVTFESGKTLDVDVVMMAIGRIPRTNDLQLGNVGVKLTPKGGVQVDEFSRTNVPNIYAIGDITDRLMLTPVAINEGAALVDTVFGNKPRKTDHTRVASAVFSIPPIGTCGLIEEVAAKEFEKVAVYMSSFTPLMHNISGSKYKKFVAKIVTNHSDGTVLGVHLLGDGAPEIIQAVGVCLRLNAKISDFYNTIGVHPTSAEELCSMRTPSYYYLKGEKMETLPESSL
notes: Trypanothione reductase, T. b. brucei strain S427 (MITat 1.4); complete open reading frame amplified from start to stop codon; identical at the amino acid level to genome strain 927 (GeneDB Tb10.406.0520) and to T. b. gambiense TryR; calculated subunit mass 53,156 Da; Flavoprotein: each subunit carries 1 FAD (and 1 NADPH in the crystal); In the crystal model the first residue and the last 2 …
stoichiometry N: 2
